# Assay results as given in the supplement of paper PMC9112550, “Optimization of the antimicrobial peptide Bac7 by deep mutational scanning” (BMC Biology, 2022).
# Test system: Escherichia coli TOP10
# Experiment: shrunken log2 fold change of peptide-encoding DNA abundance (4.5 h post-induction vs induction); higher = less antimicrobial activity (less host growth inhibition)
# Conditions: time post-induction: 4.5 h; library: site-saturation at positions 5, 18, 19, 20
# 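Further: peptides expressed intracellularly from a pBAD plasmid library in pooled LB shake-flask culture, induced with 0.3% L-arabinose, DNA abundance read by NGS, three biological replicates, DESeq2 with apeglm shrinkage.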
row,Sequence,shrunken log2 fold change
1,RRIRSRPPRLPRPRPRPIMYPRP,-0.42
2,RRIRDRPPRLPRPRPRPHSPPRP,-0.264
3,RRIRERPPRLPRPRPRPQWTPRP,-0.0833
4,RRIRTRPPRLPRPRPRPDKGPRP,0.0109
5,RRIRWRPPRLPRPRPRPPCSPRP,-0.00461
6,RRIRRRPPRLPRPRPRPETYPRP,0.0872
7,RRIRERPPRLPRPRPRPVWPPRP,0.0958
8,RRIRNRPPRLPRPRPRPWWFPRP,-0.0934
9,RRIRCRPPRLPRPRPRPFFFPRP,0.101
10,RRIRTRPPRLPRPRPRPNGHPRP,0.0943
11,RRIRPRPPRLPRPRPRPNFHPRP,-0.169
12,RRIRFRPPRLPRPRPRPEGNPRP,-0.0429
13,RRIRNRPPRLPRPRPRPNARPRP,0.0522
14,RRIRCRPPRLPRPRPRPLINPRP,-0.621
15,RRIRGRPPRLPRPRPRPEISPRP,1.5
16,RRIRARPPRLPRPRPRPQAYPRP,-0.0327
17,RRIRYRPPRLPRPRPRPSVHPRP,-0.284
18,RRIRTRPPRLPRPRPRPEMIPRP,0.0294
19,RRIRWRPPRLPRPRPRPRNPPRP,0.113
20,RRIRSRPPRLPRPRPRPQHKPRP,-0.131
21,RRIRGRPPRLPRPRPRPQYLPRP,0.0284
22,RRIRTRPPRLPRPRPRPQWPPRP,0.0505

row,Sequence,shrunken log2 fold change
1,RRIRHRPPRLPRPRPRPLNFPRP,-0.0479
2,RRIRSRPPRLPRPRPRPITQPRP,-0.0534
3,RRIRARPPRLPRPRPRPLTYPRP,0.0247
4,RRIRARPPRLPRPRPRPVSGPRP,0.398
5,RRIRWRPPRLPRPRPRPIPIPRP,-0.12
6,RRIRNRPPRLPRPRPRPRSLPRP,0.0993
7,RRIRGRPPRLPRPRPRPEWNPRP,1.71
8,RRIRLRPPRLPRPRPRPMNKPRP,-0.504
9,RRIRTRPPRLPRPRPRPKVVPRP,2.37
10,RRIRERPPRLPRPRPRPNSQPRP,-0.389
11,RRIRNRPPRLPRPRPRPEMQPRP,-0.00804
12,RRIRGRPPRLPRPRPRPYVPPRP,-0.529
13,RRIRWRPPRLPRPRPRPMEMPRP,0.0108
14,RRIRERPPRLPRPRPRPSQQPRP,0.0678
15,RRIRPRPPRLPRPRPRPRYQPRP,0.0923
16,RRIRVRPPRLPRPRPRPYCEPRP,-0.0433
17,RRIRGRPPRLPRPRPRPGWDPRP,1.09
18,RRIRARPPRLPRPRPRPFWHPRP,0.165
19,RRIRPRPPRLPRPRPRPPKYPRP,-0.148
20,RRIRPRPPRLPRPRPRPLLFPRP,0.0745
21,RRIRKRPPRLPRPRPRPFMSPRP,0.0192
22,RRIRIRPPRLPRPRPRPNNIPRP,-0.937

row,Sequence,shrunken log2 fold change
1,RRIRNRPPRLPRPRPRPVLSPRP,0.0114
2,RRIRKRPPRLPRPRPRPWYQPRP,0.218
3,RRIRCRPPRLPRPRPRPSFTPRP,-0.668
4,RRIRRRPPRLPRPRPRPTGVPRP,0.616
5,RRIRNRPPRLPRPRPRPCCAPRP,-0.0874
6,RRIRRRPPRLPRPRPRPVQCPRP,-0.138
7,RRIRNRPPRLPRPRPRPQYEPRP,-0.117
8,RRIRYRPPRLPRPRPRPLQMPRP,-0.209
9,RRIRYRPPRLPRPRPRPVRCPRP,0.0877
10,RRIRLRPPRLPRPRPRPKIWPRP,-0.0443
11,RRIRFRPPRLPRPRPRPNEHPRP,-0.525
12,RRIRIRPPRLPRPRPRPHNQPRP,-0.528
13,RRIRCRPPRLPRPRPRPFMYPRP,-0.592
14,RRIRMRPPRLPRPRPRPLHTPRP,2.66
15,RRIRNRPPRLPRPRPRPDVRPRP,-0.104
16,RRIRYRPPRLPRPRPRPESHPRP,-0.226
17,RRIRKRPPRLPRPRPRPAQNPRP,0.943
18,RRIRWRPPRLPRPRPRPSTKPRP,-0.0244
19,RRIRPRPPRLPRPRPRPDADPRP,0.0741
20,RRIRERPPRLPRPRPRPYCWPRP,-0.509
21,RRIRARPPRLPRPRPRPRFRPRP,0.459
22,RRIRCRPPRLPRPRPRPQWKPRP,-0.0376

row,Sequence,shrunken log2 fold change
1,RRIRERPPRLPRPRPRPLCLPRP,-0.679
2,RRIRVRPPRLPRPRPRPSYKPRP,-0.581
3,RRIRMRPPRLPRPRPRPRFNPRP,0.148
4,RRIRVRPPRLPRPRPRPKTMPRP,0.196
5,RRIRQRPPRLPRPRPRPRTGPRP,0.443
6,RRIRPRPPRLPRPRPRPWQPPRP,-0.0506
7,RRIRYRPPRLPRPRPRPYSIPRP,-0.264
8,RRIRARPPRLPRPRPRPHENPRP,0.127
9,RRIRVRPPRLPRPRPRPADWPRP,0.379
10,RRIRVRPPRLPRPRPRPMCPPRP,0.0857
11,RRIRNRPPRLPRPRPRPNMNPRP,-0.265
12,RRIRHRPPRLPRPRPRPVDRPRP,-0.0926
13,RRIRNRPPRLPRPRPRPTMSPRP,-0.453
14,RRIRTRPPRLPRPRPRPQPLPRP,0.284
15,RRIRYRPPRLPRPRPRPPWPPRP,0.405
16,RRIRPRPPRLPRPRPRPHNEPRP,-0.397
17,RRIRLRPPRLPRPRPRPWEQPRP,-0.206
18,RRIRCRPPRLPRPRPRPYEPPRP,-0.151
19,RRIRTRPPRLPRPRPRPKLMPRP,-0.102
20,RRIRNRPPRLPRPRPRPKNKPRP,-0.0876
21,RRIRMRPPRLPRPRPRPLILPRP,-0.429
22,RRIRFRPPRLPRPRPRPAQMPRP,0.121

row,Sequence,shrunken log2 fold change
1,RRIRQRPPRLPRPRPRPGKGPRP,0.00842
2,RRIRKRPPRLPRPRPRPRKEPRP,0.015
3,RRIRRRPPRLPRPRPRPRMYPRP,-0.152
4,RRIRTRPPRLPRPRPRPSLYPRP,-0.522
5,RRIRDRPPRLPRPRPRPNKSPRP,-0.534
6,RRIRSRPPRLPRPRPRPPQHPRP,0.184
7,RRIRMRPPRLPRPRPRPPGQPRP,1.24
8,RRIRFRPPRLPRPRPRPTVIPRP,-0.371
9,RRIRTRPPRLPRPRPRPMHFPRP,-0.0728
10,RRIRWRPPRLPRPRPRPTHSPRP,0.331
11,RRIRARPPRLPRPRPRPYKKPRP,-0.0244
12,RRIRCRPPRLPRPRPRPVCEPRP,0.0301
13,RRIRSRPPRLPRPRPRPPSHPRP,0.103
14,RRIRSRPPRLPRPRPRPKPKPRP,0.545
15,RRIRSRPPRLPRPRPRPANEPRP,0.0433
16,RRIRYRPPRLPRPRPRPMGDPRP,-0.0018
17,RRIRFRPPRLPRPRPRPWYKPRP,-0.145
18,RRIRARPPRLPRPRPRPIVNPRP,-0.178
19,RRIRCRPPRLPRPRPRPMTQPRP,-0.188
20,RRIRWRPPRLPRPRPRPCGKPRP,0.0489
21,RRIRGRPPRLPRPRPRPRPGPRP,1.34
